From patent publication US20180289766A1 (HONG KONG BAPTIST UNIVERSITY, published 2018)
Blank lines part the entries; values can stand above or below the binder they belong to. Positions of bridges follow the written chain, without caps; N, C: chain ends. No end group written: not given here.

Assays:
Assay in all cases: cell-based or functional assay
[1] = target: T1, human galanin receptor 2 (hGalR2) (human, UniProt O43603 1-387)
T1 sequence (looked up): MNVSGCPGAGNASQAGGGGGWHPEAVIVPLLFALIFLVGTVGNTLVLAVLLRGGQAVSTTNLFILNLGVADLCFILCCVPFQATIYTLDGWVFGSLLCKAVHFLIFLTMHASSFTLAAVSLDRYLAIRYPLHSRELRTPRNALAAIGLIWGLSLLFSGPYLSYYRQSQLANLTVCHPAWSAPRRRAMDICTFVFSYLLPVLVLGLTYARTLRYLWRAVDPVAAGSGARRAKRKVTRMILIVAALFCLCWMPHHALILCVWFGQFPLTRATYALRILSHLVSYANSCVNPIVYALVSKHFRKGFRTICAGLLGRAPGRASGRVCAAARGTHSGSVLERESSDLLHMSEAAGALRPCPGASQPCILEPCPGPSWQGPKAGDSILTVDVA

[2] = target: T2, human galanin receptor 3 (hGalR3) (human, UniProt O60755 1-368)
T2 sequence (looked up): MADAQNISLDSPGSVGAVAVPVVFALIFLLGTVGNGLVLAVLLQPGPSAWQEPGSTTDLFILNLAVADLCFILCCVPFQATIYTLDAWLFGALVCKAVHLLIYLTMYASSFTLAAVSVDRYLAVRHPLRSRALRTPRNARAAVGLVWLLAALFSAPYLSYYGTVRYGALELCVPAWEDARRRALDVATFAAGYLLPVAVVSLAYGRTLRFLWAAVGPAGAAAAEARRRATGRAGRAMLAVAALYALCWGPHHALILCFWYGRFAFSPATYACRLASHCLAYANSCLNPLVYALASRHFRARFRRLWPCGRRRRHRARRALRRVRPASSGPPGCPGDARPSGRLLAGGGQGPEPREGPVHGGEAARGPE

[3] = target: T3, human galanin receptor 1 (hGalR1) (human, UniProt P47211 1-349)
T3 sequence (looked up): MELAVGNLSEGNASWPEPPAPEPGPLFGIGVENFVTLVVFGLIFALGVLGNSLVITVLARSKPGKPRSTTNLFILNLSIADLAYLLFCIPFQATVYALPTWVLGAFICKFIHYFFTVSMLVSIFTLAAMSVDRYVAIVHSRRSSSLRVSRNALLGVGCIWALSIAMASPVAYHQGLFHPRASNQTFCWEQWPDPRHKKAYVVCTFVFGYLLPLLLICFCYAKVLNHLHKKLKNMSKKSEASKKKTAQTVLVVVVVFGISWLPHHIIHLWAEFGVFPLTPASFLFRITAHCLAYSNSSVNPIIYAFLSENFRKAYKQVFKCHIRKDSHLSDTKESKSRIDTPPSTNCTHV

- EC50, receptor activation (SRE-Luc assay) [1]: 370 nM
- Emax, receptor activation (SRE-Luc assay) [1]: 0.87 relative to hSPX Emax
- EC50, receptor activation (SRE-Luc assay) [2]: 630 nM
- Emax, receptor activation (SRE-Luc assay) [2]: 0.88 relative to hSPX Emax
B1: hSPX (C13) (peptide)
peptide: NWTPQAMLYLKGCQ-NH2

- Emax, receptor activation (SRE-Luc assay) [3]: 0.22 relative to hGAL Emax
- EC50, receptor activation (SRE-Luc assay) [1]: 480 nM
- Emax, receptor activation (SRE-Luc assay) [1]: 1.16 relative to hSPX Emax
- Emax, receptor activation (SRE-Luc assay) [2]: 0.2 relative to hSPX Emax
B2: LH201 (Ac) (peptide)
peptide: Ac-CWTLNSAGYLLGCHAV-NH2
modifications: disulfide 1-13

- EC50, receptor activation (SRE-Luc assay) [1]: 470 nM
- Emax, receptor activation (SRE-Luc assay) [1]: 0.98 relative to hSPX Emax
- EC50, receptor activation (SRE-Luc assay) [2]: 770 nM
- Emax, receptor activation (SRE-Luc assay) [2]: 0.91 relative to hSPX Emax
B3: hSPX (C4) (peptide)
peptide: NWTCQAMLYLKGAQ-NH2

- EC50, receptor activation (SRE-Luc assay) [1]: 1430 nM
- Emax, receptor activation (SRE-Luc assay) [1]: 1.08 relative to hSPX Emax
- EC50, receptor activation (SRE-Luc assay) [2]: 1500 nM
- Emax, receptor activation (SRE-Luc assay) [2]: 0.87 relative to hSPX Emax
B4: LH102 (peptide)
peptide: NWTCQAMLYLKGCQ-NH2
modifications: disulfide 4-13; N-terminus assumed
SMILES: CSCC[C@@H]1NC(=O)[C@H](C)NC(=O)[C@H](CCC(N)=O)NC(=O)[C@@H](NC(=O)[C@@H](NC(=O)[C@H](Cc2c[nH]c3ccccc23)NC(=O)[C@@H](N)CC(N)=O)[C@@H](C)O)CSSC[C@@H](C(=O)N[C@@H](CCC(N)=O)C(N)=O)NC(=O)CNC(=O)[C@H](CCCCN)NC(=O)[C@H](CC(C)C)NC(=O)[C@H](Cc2ccc(O)cc2)NC(=O)[C@H](CC(C)C)NC1=O

- EC50, receptor activation (SRE-Luc assay) [3]: > 10000 nM
- Emax, receptor activation (SRE-Luc assay) [3]: 0.35 relative to hGAL Emax
- EC50, receptor activation (SRE-Luc assay) [1]: 120 nM
- Emax, receptor activation (SRE-Luc assay) [1]: 1 relative to hSPX Emax
- EC50, receptor activation (SRE-Luc assay) [2]: > 10000 nM
- Emax, receptor activation (SRE-Luc assay) [2]: 0.55 relative to hSPX Emax
B5: LH201 (peptide)
peptide: CWTLNSAGYLLGCHAV-NH2
modifications: disulfide 1-13; N-terminus assumed
SMILES: CC(C)C[C@@H]1NC(=O)[C@H](CC(C)C)NC(=O)[C@H](Cc2ccc(O)cc2)NC(=O)CNC(=O)[C@H](C)NC(=O)[C@H](CO)NC(=O)[C@H](CC(N)=O)NC(=O)[C@H](CC(C)C)NC(=O)[C@H]([C@@H](C)O)NC(=O)[C@H](Cc2c[nH]c3ccccc23)NC(=O)[C@@H](N)CSSC[C@@H](C(=O)N[C@@H](Cc2c[nH]cn2)C(=O)N[C@@H](C)C(=O)N[C@H](C(N)=O)C(C)C)NC(=O)CNC1=O

- Emax, receptor activation (SRE-Luc assay) [2]: 0.68 relative to hSPX Emax
B6: human galanin (hGAL) (peptide)
peptide: GWTLNSAGYLLGPHAVGNHRSFSDKNGLTS-NH2

- EC50, receptor activation (SRE-Luc assay) [1]: 380 nM
- Emax, receptor activation (SRE-Luc assay) [1]: 0.97 relative to hSPX Emax
- EC50, receptor activation (SRE-Luc assay) [2]: 390 nM
- Emax, receptor activation (SRE-Luc assay) [2]: 1 relative to hSPX Emax
B7: LH101 (Ac) (peptide)
peptide: Ac-CWTPQAMLYLKGCQ-NH2
modifications: disulfide 1-13
SMILES: CSCC[C@@H]1NC(=O)[C@H](C)NC(=O)[C@H](CCC(N)=O)NC(=O)[C@@H]2CCCN2C(=O)[C@H]([C@@H](C)O)NC(=O)[C@H](Cc2c[nH]c3ccccc23)NC(=O)[C@@H](NC(C)=O)CSSC[C@@H](C(=O)N[C@@H](CCC(N)=O)C(N)=O)NC(=O)CNC(=O)[C@H](CCCCN)NC(=O)[C@H](CC(C)C)NC(=O)[C@H](Cc2ccc(O)cc2)NC(=O)[C@H](CC(C)C)NC1=O

- EC50, receptor activation (SRE-Luc assay) [1]: 1190 nM
- Emax, receptor activation (SRE-Luc assay) [1]: 1.09 relative to hSPX Emax
- EC50, receptor activation (SRE-Luc assay) [2]: 1560 nM
- Emax, receptor activation (SRE-Luc assay) [2]: 1.04 relative to hSPX Emax
B8: LH101 (peptide)
peptide: CWTPQAMLYLKGCQ-NH2
modifications: disulfide 1-13; N-terminus assumed
SMILES: CSCC[C@@H]1NC(=O)[C@H](C)NC(=O)[C@H](CCC(N)=O)NC(=O)[C@@H]2CCCN2C(=O)[C@H]([C@@H](C)O)NC(=O)[C@H](Cc2c[nH]c3ccccc23)NC(=O)[C@@H](N)CSSC[C@@H](C(=O)N[C@@H](CCC(N)=O)C(N)=O)NC(=O)CNC(=O)[C@H](CCCCN)NC(=O)[C@H](CC(C)C)NC(=O)[C@H](Cc2ccc(O)cc2)NC(=O)[C@H](CC(C)C)NC1=O

- EC50, receptor activation (SRE-Luc assay) [1]: 220 nM
- Emax, receptor activation (SRE-Luc assay) [1]: 1.02 relative to hSPX Emax
- EC50, receptor activation (SRE-Luc assay) [2]: > 10000 nM
- Emax, receptor activation (SRE-Luc assay) [2]: 0.45 relative to hSPX Emax
B9: human galanin (1-16), hGAL (1-16) (peptide)
peptide: GWTLNSAGYLLGPHAV-NH2

- EC50, receptor activation (SRE-Luc assay) [1]: 510 nM
- Emax, receptor activation (SRE-Luc assay) [1]: 1.05 relative to hSPX Emax
- EC50, receptor activation (SRE-Luc assay) [2]: 360 nM
- Emax, receptor activation (SRE-Luc assay) [2]: 1 relative to hSPX Emax
B10: hSPX (C1) (peptide)
peptide: CWTPQAMLYLKGAQ-NH2
